From patent US20040018561A1, “Peptide compounds and their use as protease substrates” (priority 2002, published 2004)

What was measured:
[1] = substrate: COc1ccc2c(CC(=O)N[C@@H](CCCNC(=N)N)C(=O)N3CCC[C@@H]3C(=O)N[C@@H](CC(C)C)C(=O)NCC(=O)N[C@@H](CC(C)C)C(=O)N[C@H](CNc3ccc([N+](=O)[O-])cc3[N+](=O)[O-])C(=O)N[C@@H](C)C(=O)N[C@H](CCCNC(=N)N)C(=O)N[C@@H](CCC(=O)O)C(=O)N[C@H](CCCNC(=N)N)C(N)=O)cc(=O)oc2c1; assay: Km and kcat/Km of substrates with MMP-7; assay type: biochemical; conditions: other: substrate cleavage by MMP-7
[2] = substrate: COc1ccc2c(CC(=O)N[C@H](CCCNC(=N)N)C(=O)N3CCC[C@H]3C(=O)N[C@@H](CC(C)C)C(=O)NCC(=O)N[C@@H](CCCCOCc3ccccc3)C(=O)N[C@@H](CNc3ccc([N+](=O)[O-])cc3[N+](=O)[O-])C(=O)N[C@@H](C)C(=O)N[C@H](CCCNC(=N)N)C(=O)N[C@H](CCC(=O)O)C(=O)N[C@H](CCCNC(=N)N)C(N)=O)cc(=O)oc2c1; assay: Km and kcat/Km of substrates with MMP-7; assay type: biochemical; conditions: other: substrate cleavage by MMP-7
[3] = substrate: COc1ccc2c(CC(=O)N[C@@H](CCCNC(=N)N)C(=O)N3CCCC3C(=O)N[C@@H](CC(C)C)C(=O)NCC(=O)N[C@@H](CC(C)C)C(=O)N[C@H](CNc3ccc([N+](=O)[O-])cc3[N+](=O)[O-])C(=O)N[C@@H](C)C(=O)N[C@H](CCCNC(=N)N)C(=O)N[C@@H](CCC(=O)O)C(=O)N[C@H](CCCNC(=N)N)C(N)=O)cc(=O)oc2c1; assay: purified protein, by the assay type; conditions: other: substrate cleavage by MMP-9
[4] = substrate: COc1ccc2c(CC(=O)N[C@@H](CCCNC(=N)N)C(=O)N3CCC[C@@H]3C(=O)N[C@@H](CC(C)C)C(=O)NCC(=O)N[C@@H](CC(C)C)C(=O)N[C@H](CNc3ccc([N+](=O)[O-])cc3[N+](=O)[O-])C(=O)N[C@@H](C)C(=O)N[C@H](CCCNC(=N)N)C(=O)N[C@@H](CCC(=O)O)C(=O)N[C@H](CCCNC(=N)N)C(N)=O)cc(=O)oc2c1; assay: purified protein, by the assay type; conditions: other: substrate cleavage by MMP-9
[5] = substrate: COc1ccc2c(CC(=O)N[C@@H](CCCNC(=N)N)C(=O)N3CCCC3C(=O)N[C@@H](CC(C)C)C(=O)NCC(=O)N[C@@H](CC(C)C)C(=O)N[C@H](CNc3ccc([N+](=O)[O-])cc3[N+](=O)[O-])C(=O)N[C@@H](C)C(=O)N[C@H](CCCNC(=N)N)C(=O)N[C@@H](CCC(=O)O)C(=O)N[C@H](CCCNC(=N)N)C(N)=O)cc(=O)oc2c1; assay: Km and kcat/Km of substrates with MMP-9; assay type: biochemical; conditions: other: substrate cleavage by MMP-9
[6] = substrate: COc1ccc2c(CC(=O)N[C@@H](CCCNC(=N)N)C(=O)N3CCC[C@H]3C(=O)N[C@@H](CC(C)C)C(=O)NCC(=O)N[C@@H](CCCCOCc3ccccc3)C(=O)N[C@@H](CNc3ccc([N+](=O)[O-])cc3[N+](=O)[O-])C(=O)N[C@@H](C)C(=O)N[C@@H](CCCNC(=N)N)C(=O)N[C@@H](CCC(=O)O)C(=O)N[C@@H](CCCNC(=N)N)C(N)=O)cc(=O)oc2c1; assay: Km and kcat/Km of substrates with MMP-9; assay type: biochemical; conditions: other: substrate cleavage by MMP-9
[7] = substrate: COc1ccc2c(CC(=O)N[C@H](CCCNC(=N)N)C(=O)N3CCC[C@H]3C(=O)N[C@@H](CC(C)C)C(=O)NCC(=O)N[C@@H](CCCCOCc3ccccc3)C(=O)N[C@@H](CNc3ccc([N+](=O)[O-])cc3[N+](=O)[O-])C(=O)N[C@@H](C)C(=O)N[C@H](CCCNC(=N)N)C(=O)N[C@H](CCC(=O)O)C(=O)N[C@H](CCCNC(=N)N)C(N)=O)cc(=O)oc2c1; assay: Km and kcat/Km of substrates with MMP-9; assay type: biochemical; conditions: other: substrate cleavage by MMP-9
[8] = substrate: COc1ccc2c(CC(=O)N[C@H](CCCNC(=N)N)C(=O)N3CCC[C@H]3C(=O)N[C@@H](CC(C)C)C(=O)NCC(=O)N[C@@H](CCCCOc3ccccc3)C(=O)N[C@@H](CNc3ccc([N+](=O)[O-])cc3[N+](=O)[O-])C(=O)N[C@@H](C)C(=O)N[C@H](CCCNC(=N)N)C(=O)N[C@H](CCC(=O)O)C(=O)N[C@H](CCCNC(=N)N)C(N)=O)cc(=O)oc2c1; assay: Km and kcat/Km of substrates with MMP-9; assay type: biochemical; conditions: other: substrate cleavage by MMP-9
[9] = substrate: COc1ccc2c(CC(=O)N[C@@H](CCCNC(=N)N)C(=O)N3CCC[C@@H]3C(=O)N[C@@H](CC(C)C)C(=O)NCC(=O)N[C@@H](CC(C)C)C(=O)N[C@H](CNc3ccc([N+](=O)[O-])cc3[N+](=O)[O-])C(=O)N[C@@H](C)C(=O)N[C@H](CCCNC(=N)N)C(=O)N[C@@H](CCC(=O)O)C(=O)N[C@H](CCCNC(=N)N)C(N)=O)cc(=O)oc2c1; assay: Km and kcat/Km of substrates with MMP-1; assay type: biochemical; conditions: other: substrate cleavage by MMP-1
[10] = substrate: COc1ccc2c(CC(=O)N[C@H](CCCNC(=N)N)C(=O)N3CCC[C@H]3C(=O)N[C@@H](CC(C)C)C(=O)NCC(=O)N[C@@H](CCCCOCc3ccccc3)C(=O)N[C@@H](CNc3ccc([N+](=O)[O-])cc3[N+](=O)[O-])C(=O)N[C@@H](C)C(=O)N[C@H](CCCNC(=N)N)C(=O)N[C@H](CCC(=O)O)C(=O)N[C@H](CCCNC(=N)N)C(N)=O)cc(=O)oc2c1; assay: Km and kcat/Km of substrates with MMP-1; assay type: biochemical; conditions: other: substrate cleavage by MMP-1
[11] = substrate: COc1ccc2c(CC(=O)N[C@@H](CCCNC(=N)N)C(=O)N3CCC[C@@H]3C(=O)N[C@@H](CC(C)C)C(=O)NCC(=O)N[C@@H](CC(C)C)C(=O)N[C@H](CNc3ccc([N+](=O)[O-])cc3[N+](=O)[O-])C(=O)N[C@@H](C)C(=O)N[C@H](CCCNC(=N)N)C(=O)N[C@@H](CCC(=O)O)C(=O)N[C@H](CCCNC(=N)N)C(N)=O)cc(=O)oc2c1; assay: Km and kcat/Km of substrates with MMP-2; assay type: biochemical; conditions: other: substrate cleavage by MMP-2
[12] = substrate: COc1ccc2c(CC(=O)N[C@@H](CCCNC(=N)N)C(=O)N3CCC[C@H]3C(=O)N[C@@H](CC(C)C)C(=O)NCC(=O)N[C@@H](CCCCOCc3ccccc3)C(=O)N[C@@H](CNc3ccc([N+](=O)[O-])cc3[N+](=O)[O-])C(=O)N[C@@H](C)C(=O)N[C@@H](CCCNC(=N)N)C(=O)N[C@@H](CCC(=O)O)C(=O)N[C@@H](CCCNC(=N)N)C(N)=O)cc(=O)oc2c1; assay: Km and kcat/Km of substrates with MMP-2; assay type: biochemical; conditions: other: substrate cleavage by MMP-2
[13] = substrate: COc1ccc2c(CC(=O)N[C@H](CCCNC(=N)N)C(=O)N3CCC[C@H]3C(=O)N[C@@H](CC(C)C)C(=O)NCC(=O)N[C@@H](CCCCOCc3ccccc3)C(=O)N[C@@H](CNc3ccc([N+](=O)[O-])cc3[N+](=O)[O-])C(=O)N[C@@H](C)C(=O)N[C@H](CCCNC(=N)N)C(=O)N[C@H](CCC(=O)O)C(=O)N[C@H](CCCNC(=N)N)C(N)=O)cc(=O)oc2c1; assay: Km and kcat/Km of substrates with MMP-2; assay type: biochemical; conditions: other: substrate cleavage by MMP-2
[14] = substrate: COc1ccc2c(CC(=O)N[C@H](CCCNC(=N)N)C(=O)N3CCC[C@H]3C(=O)N[C@@H](CC(C)C)C(=O)NCC(=O)N[C@@H](CCCCOc3ccccc3)C(=O)N[C@@H](CNc3ccc([N+](=O)[O-])cc3[N+](=O)[O-])C(=O)N[C@@H](C)C(=O)N[C@H](CCCNC(=N)N)C(=O)N[C@H](CCC(=O)O)C(=O)N[C@H](CCCNC(=N)N)C(N)=O)cc(=O)oc2c1; assay: Km and kcat/Km of substrates with MMP-2; assay type: biochemical; conditions: other: substrate cleavage by MMP-2

B1: MMP-7 (Homo sapiens) (protein)
chain: YSLFPNSPKWTSKVVTYRIVSYTRDLPHITVDRLVSKALNMWGKEIPLHFRKVVWGTADIMIGFARGAHGDSYPFDGPGNTLAHAFAPGTGLGGDAHFDEDERWTDGSSLGINFLYAATHELGHSLGMGHSSDPNAVMYPTYGNGDPQNFKLSQDDIKGIQKLYGKRSNSRKK
Km [1]: 81.2 µM | kcat/Km [1]: 2.2 M^−1s^−1×10^4 | Km [2]: 94.7 µM | kcat/Km [2]: 0.298 M^−1s^−1×10^4

B2: MMP-9 (Homo sapiens) (protein)
chain: MRTPRCGVPDLGRFQTFEGDLKWHHHNITYWIQNYSEDLPRAVIDDAFARAFALWSAVTPLTFTRVYSRDADIVIQFGVAEHGDGYPFDGKDGLLAHAFPPGPGIQGDAHFDDDELWSLGKGVVVPTRFGNADGAACHFPFIFEGRSYSACTTDGRSDGLPWCSTTANYDTDDRFGFCPSERLYTQDGNADGKPCQFPFIFQGQSYSACTTDGRSDGYRWCATTANYDRDKLFGFCPTRADSTVMGGNSAGELCVFPFTFLGKEYSTCTSEGRGDGRLWCATTSNFDSDKKWGFCPDQGYSLFLVAAHEFGHALGLDHSSVPEALMYPMYRFTEGPPLHKDDVNGIRHLYGPRPEPEPRPPTTTTPQPTAPPTVCPTGPPTVHPSERPTAGPTGPPSAGPTGPPTAGPSTATTVPLSPVDDACNVNIFDAIAEIGNQLYLFKDGKYWRFSEGRGSRPQGPFLIADKWPALPRKLDSVFEERLSKKLFFFSGRQVWVYTGASVLGPRRLDKLGLGADVAQVTGALRSGRGKMLLFSGRRLWRFDVKAQMVDPRSASEVDRMFPGVPLDTHDVFQYREKAYFCQDRFYWRVSSRSELNQVDQVGYVTYDILQCPED
Km [3]: 8.2 µM | kcat/Km [3]: 133 M^−1s^−1×10^4 | Km [4]: 6.4 µM | kcat/Km [4]: 41.8 M^−1s^−1×10^4 | Km [5]: 6.2 µM | kcat/Km [5]: 129 M^−1s^−1×10^4 | Km [6]: 2.3 µM | kcat/Km [6]: 147 M^−1s^−1×10^4 | Km [7]: 3.3 µM | kcat/Km [7]: 31.9 M^−1s^−1×10^4 | Km [8]: 1.4 µM | kcat/Km [8]: 191 M^−1s^−1×10^4

B3: MMP-1 (Homo sapiens) (protein)
chain: FVLTEGNPRWEQTHLTYRIENYTPDLPRADVDHAIEKAFQLWSNVTPLTFTKVSEGQADIMISFVRGDHRDNSPFDGPGGNLAHAFQPGPGIGGDAHFDEDERWTNNFREYNLHRVAAHELGHSLGLSHSTDIGALMYPSYTFSGDVQLAQDDIDGIQAIYGRSQNPVQPIGPQTPKACDSKLTFDAITTIRGEVMFFKDRFYMRTNPFYPEVELNFISVFWPQLPNGLEAAYEFADRDEVRFFKGNKYWAVQGQNVLHGYPKDIYSSFGFPRTVKHIDAALSEENTGKTYFFVANKYWRYDEYKRSMDPGYPKMIAHDFPGIGHKVDAVFMKDGFFYFFHGTRQYKFDPKTKRILTLQKANSWFNCRKN
Km [9]: 49 µM | kcat/Km [9]: 5.7 M^−1s^−1×10^4 | Km [10]: 35.1 µM | kcat/Km [10]: 0.36 M^−1s^−1×10^4

B4: MMP-2 (Homo sapiens) (protein)
chain: YNFFPRKPKWDKNQITYRIIGYTPDLDPETVDDAFARAFQVWSDVTPLRFSRIHDGEADIMINFGRWEHGDGYPFDGKDGLLAHAFAPGTGVGGDSHFDDDELWTLGEGQVVRVKYGNADGEYCKFPFLFNGKEYNSCTDTGRSDGFLWCSTTYNFEKDGKYGFCPHEALFTMGGNAEGQPCKFPFRFQGTSYDSCTTEGRTDGYRWCGTTEDYDRDKKYGFCPETAMSTVGGNSEGAPCVFPFTFLGNKYESCTSAGRSDGKMWCATTANYDDDRKWGFCPDQGYSLFLVAAHEFGHAMGLEHSQDPGALMAPIYTYTKNFRLSQDDIKGIQELYGASPDIDLGTGPTPTLGPVTPEICKQDIVFDGIAQIRGEIFFFKDRFIWRTVTPRDKPMGPLLVATFWPELPEKIDAVYEAPQEEKAVFFAGNEYWIYSASTLERGYPKPLTSLGLPPDVQRVDAAFNWSKNKKTYIFAGDKFWRYNEVKKKMDPGFPKLIADAWNAIPDNLDAVVDLQGGGHSYFFKGAYYLKLENQSLKSVKFGSIKSDWLGC
Km [11]: 9.9 µM | kcat/Km [11]: 17.8 M^−1s^−1×10^4 | Km [12]: 8.3 µM | kcat/Km [12]: 134 M^−1s^−1×10^4 | Km [13]: 3.7 µM | kcat/Km [13]: 60 M^−1s^−1×10^4 | Km [14]: 3.6 µM | kcat/Km [14]: 196 M^−1s^−1×10^4
